Results reported in patent publication US20050004351A1.

Columns and labels:
Test in all cases: competitive ELISA
[1] = biological target: affinity purified β2GPI-dependent antiphospholipid antibody from patient 6203
[2] = biological target: affinity purified β2GPI-dependent antiphospholipid antibody from patient 6501
[3] = biological target: affinity purified β2GPI-dependent antiphospholipid antibody from patient 6509
[4] = biological target: affinity purified β2GPI-dependent antiphospholipid antibody from patient 6626
[5] = biological target: affinity purified β2GPI-dependent antiphospholipid antibody from patient 6632
[6] = biological target: affinity purified β2GPI-dependent antiphospholipid antibody from patient 6641
[7] = biological target: affinity purified β2GPI-dependent antiphospholipid antibody from patient 6644
[8] = biological target: affinity purified β2GPI-dependent antiphospholipid antibody from patient 6652
[9] = biological target: affinity purified β2GPI-dependent antiphospholipid antibody from patient 6701
[10] = biological target: affinity purified β2GPI-dependent antiphospholipid antibody from patient 7008
[11] = biological target: affinity purified β2GPI-dependent antiphospholipid antibody from patient 7015
[12] = biological target: affinity purified β2GPI-dependent antiphospholipid antibody from patient 7101
[13] = biological target: affinity purified β2GPI-dependent antiphospholipid antibody from patient 7104

B1: recombinant human β2GPI domain 5, GlyHis6 (protein)
chain: GRASCKLPVKKATVVYQGERVKIQEKFKNGMLHGDKVSFFCKNKEKKCSYTEDAQCIDGTIEVPKCFKEHSSLAFWKTDASDVKPCGHHHHHH
[1]
  Max inhibition: 5%
[2]
  Max inhibition: 10%
[3]
  Max inhibition: 10%
[4]
  Max inhibition: 10%
[5]
  Max inhibition: 10%
[6]
  Max inhibition: 10%
[7]
  Max inhibition: 10%
[8]
  Max inhibition: 15%
[9]
  Max inhibition: 10%
[10]
  Max inhibition: 20%
[11]
  Max inhibition: 10%
[12]
  Max inhibition: 5%
[13]
  Max inhibition: 0%
